B1: Ventral anterior homeobox 1, residues 102 to 157; numbered along this chain, Q5SQQ9 (parent)
chain: RTRTSFTAEQLYRLEMEFQRCQYVVGRERTELARQLNLSETQVKVWFQNRRTKQKK

Variants of: B1
Assay: abundance fitness (aPCA) (normalised: wild type 0, dead -1); higher = more abundant; growth selection in yeast, the domain comes from the species named
Settings: Homo sapiens

Abundance fitness of substitutions, site by site:
L38: R -0.576, D -0.818, M -0.112, W -0.861, Q -0.91, P -1.02, F -0.72, K -0.773, H -0.854, V 0.027, T -0.411, G -0.822, I -0.307, A -0.253, C -0.186, S -0.321
N37: E -0.033, R -0.134, D -0.049, L -0.307, V -0.464, C -0.037, G -0.04, S -0.239, A -0.211, T -0.254, Q 0.06, F -0.183, W -0.605, M -0.536, K -0.092
K44: V -0.032, Y -0.271, W -0.167, H -0.26, G -0.049, P -0.94, L -0.175, M -0.079, S 0.106, R -0.22, E 0.048, Q -0.091, F -0.464, D 0.129, N 0.002, C -0.069, A 0.038
E40: G -0.413, H -1.01, P -0.318, Q -0.507, M -0.852, S -0.283, A -0.215, K -0.676, R -0.57, W -0.736, L -0.711, I -0.557, C -0.226, Y -0.712, D -0.128, V -0.315
L36: W -0.696, R -0.881, S -0.687, Y -0.858, V -0.173, Q -0.545, T -0.264, P -0.711
W46: L -0.717, F -0.406, T -0.922, Q -0.958, V -0.63, R -0.844, M -0.919, I -0.807, G -0.778, C -0.909, K -1.11, S -0.627
T41: L 0.024, F -0.129, Y -0.2, W -0.12, R -0.336, D 0.105, P -0.152, G 0.03, K -0.381, I -0.5, A 0.032, H -0.027, N -0.127, E 0.106, C 0.164, S 0.006, M 0.095, Q 0.227, V -0.104
V43: F -0.765, S -0.561, R -0.793, C -0.508, L -0.166, Q -0.817, P -0.723, D -0.691, W -0.871, A -0.679, M -0.838
V45: F -0.03, K -0.258, T 0.126, Y -0.046, N -0.248, P -0.545, A 0.02, L 0.083, S 0.158, Q -0.061, I -0.3, D 0.185, W 0.015, R -0.156, H -0.021, M -0.148, G -0.159
Q42: D 0.028, A 0.021, I 0.007, V -0.153, M -0.252, W -0.397, N -0.257, G -0.603, T 0.163, S -0.364, C -0.563, F -0.266, Y 0.053, P -0.824, K -0.473, E 0.183, L -0.137, R -0.223
S39: D 0.264, Q -0.313, N 0.063, T -0.218, C -0.266, R -0.417, W -0.959, V -0.488, K -0.25, F -0.435, L -0.591, P 0.033, I -1.08, Y -0.649, H -0.334, G -0.375, M -0.595, E -0.115

— the Human Domainome abundance scans (Beltran et al. 2025)
